These results are taken from PMC2963451.

What is called Kd is a measure of binding affinity in units of concentration. Read a low Kd as a tighter complex.

This data set has as its target Gag (GagΔp6) (HIV-1 BH10, UniProt P03347 1-447). Kind of data set: fluorescence anisotropy. On the technique in general: In fluorescence polarisation assays a small probe gives low polarisation when free and higher when bound to something large.

B1: JL943 (ssRNA)
RNA: AGCUGCUUUUUGCCUGUACU
As to B1, binding was put at a Kd of 8 nM.

B2: JL936 (ssDNA)
DNA: AGCTGCTTTTTGCCTGTACT
In the case of B2, the Kd stood at 9 nM.
